Molecular target: Taliglucerase alfa (recombinant GCase) (human) (UniProt P04062)
Assay: AUC

population of the dimer species: 47% | stoichiometry N: 2
Substance: Taliglucerase alfa (recombinant GCase) (from UniProt P04062 40-536) (enzyme)

Reference: PMC4361889
